Data set [1] relates to CC(C)[C@H](NCC1(O)OC[C@@H](O)[C@@H](O)[C@@H]1O)C(=O)N[C@@H](Cc1c[nH]cn1)C(=O)O. The data set can be described thus: purified protein, by the assay type. As to conditions: other: IE353, F-VH 0.18-1.75 mM, 37° C., MES pH 6.5, peroxidase-coupled, Lineweaver-Burk plot.
Substrate in data set [2]: CC(C)[C@H](NCC1(O)OC[C@@H](O)[C@@H](O)[C@@H]1O)C(=O)N[C@@H](Cc1c[nH]cn1)C(=O)O
The data set can be described thus: Km value to F-VH (Lineweaver-Burk plot). Format: biochemical, Coniochaeta sp. As to conditions: other: FPOX-CE, F-VH 0.18-1.75 mM, 37° C., MES pH 6.5, peroxidase-coupled. The procedure: (§1) The chemical compounds used in the present examples were purchased from NACALAI TESQUE, INC. unless otherwise particularly stated.
(§2) The following describes an activity measurement method of the following examples 1 through 3.
(§3) An enzyme activity to a substrate was measured by an increase in absorbance of a pigment as a result of peroxidase reaction involving hydrogen peroxide generated by enzyme reaction. First, 3 ml of activity measuring reagent was heated at 37° C. for 5 minutes, and then 0.1 ml of enzyme solution diluted in advance by an enzyme diluent (a 50 mM potassium phosphate buffer (pH 7.5)) was added to the activity measuring reagent, thereby starting the reaction.
(§4) The reaction was conducted at 37° C. for 5 minutes, and then a change in the absorbance at 500 nm (ΔODtest/min) was measured. Meanwhile, a blank test was conducted by adding, instead of the enzyme solution, 0.1 ml of enzyme diluent to the activity measuring reagent, and then measuring a change in the absorbance at 500 nm (ΔODblank/min) in the same way. […] In the above formula, • “3.1 (ml)” is the whole liquid quantity; • “13” is a millimolar absorbance index; • “1.0 (cm)” is an optical length of a cell; and • “0.1 (ml)” is the enzyme sample quantity.
(§5) The Km value to F-VH was worked out as follows. […] Subsequently, activities in the samples were measured by the above-described activity measurement method. […]

Substrate in data set [3]: CC(C)[C@H](NCC1(O)OC[C@@H](O)[C@@H](O)[C@@H]1O)C(=O)N[C@@H](Cc1c[nH]cn1)C(=O)O
In words: Km value to F-VH (Lineweaver-Burk plot). As to conditions: other: FPOX-EE, F-VH 0.18-1.75 mM, 37° C., MES pH 6.5, peroxidase-coupled. Format: biochemical, E. terrenum. How it is done: as §1, §2, §3, §4, §5

Broadly, the Km is the substrate concentration at which the rate is half of its maximum. Turning to “Phaeosphaeria nodorum fructosyl valyl histidine oxidase IE353, wild type, SEQ ID NO: 1 (Parastagonospora nodorum SN15)”, in data set [1], the Km was determined as 500 µM.

B1: FPOX-CE (Coniochaeta sp.), conventional enzyme manufactured by KIKKOMAM Corporation (Coniochaeta sp. NISL 9330) (protein)
chain: MTSNRADTRVIVVGGGGTIGSSTALHLVRSGYAPANITVLDTFEIPSAQSAGHDLNKIMGIRLRNKVDLQMSLEARQMWKEDELFQPFFHNTGRMDCEHTPEGIEDLKKQYQALHDAGAGLEKTHAWLDNEDEILSKMPLLQRDQIQGWKAIWSQDGGWLAAAKAINAIGQFLKERGVKFGFGGAGSFKQPLFDDEGTTCIGVETADGTKYYADKVVLAAGAWSPTLVDLEDQCCSKAWVYAHIQLTPEEAAEYKGVPVVYNGEFGFFFEPNEFGVIKVCDEFPGFSRFKEHQPYGAPSPKHISVPRSHAKHPTDTYPDASEVSIKKAIATFLPRFQDKELFNRALCWCTDTADAALLMCEHPKWKNFILATGDSGHSFKILPNVGKHVVELIEGRLPEEMAYQWRWRPGGDALKSRRAAPPKDLADMPGWKHDPKL
For the molecule B1, the Km in data set [2] was 1000 µM.

B2: FPOX-EE (E. terrenum), conventional enzyme manufactured by KIKKOMAM Corporation (Penicillium terrenum) (protein)
chain: MAHSRASTKVVVVGGGGTIGSSTALHLIRSGYTPSNITVLDVYKTPSLQSAGHDLNKIMGIRLRNGPDLQLSLESLDMWQNDELFKPFFHQVGMIDCSSSKEGIENLRRKYQTLLDAGIGLEKTNVWLESEDEILAKAPNFTREQVKGWKGLFCTDGGWLAAAKAINAIGIFLQDKGVKFGFGGAGTFQQPLFAADGKTCIGLETTDGTKYFADKVVLAAGAWSPTLVDLEDQCVSKAWVFAHIQLTPKEADAYKNVPVVYDGEYGFFFEPNEYGVIKVCDEFPGFSRFKLHQPYGAASPKMISVPRSHAKHPTDTYPDASEVTIRKAIARFLPEFKDKELFNRTMCWCTDTADANLLICEHPKWKNFILATGDSGHSFKLLPNIGKHVVELLEGSLSQEMAGAWRWRPGGDALRSRRGAPAKDLAEMPGWKHDAHL
On to B2, for which the Km in data set [3] is 1000 µM.

(Values after patent US8993255B2, “Protein having fructosyl valyl histidine oxidase activity, modified protein, and use of the protein or the modified protein” (Toyo Boseki Kabushiki Kaisha, priority 2008, dated 2015).)
